# Test results taken from patent US20200102387A1 (CELGENE, published 2020).
# B1: SIRPAB-11-K322A (antibody, human IgG1, kappa)
# light: DIQMTQSPSSVSASVGDRVTITCRASQGISSWLAWYQQKPGKAPKLLIYAASNLQSGVPSRFSGSGSGTDFTLTISSLQPEDFATYYCQQGASFPITFGGGTKVEIKRTVAAPSVFIFPPSDEQLKSGTASVVCLLNNFYPREAKVQWKVDNALQSGNSQESVTEQDSKDSTYSLSSTLTLSKADYEKHKVYACEVTHQGLSSPVTKSFNRGEC
# heavy: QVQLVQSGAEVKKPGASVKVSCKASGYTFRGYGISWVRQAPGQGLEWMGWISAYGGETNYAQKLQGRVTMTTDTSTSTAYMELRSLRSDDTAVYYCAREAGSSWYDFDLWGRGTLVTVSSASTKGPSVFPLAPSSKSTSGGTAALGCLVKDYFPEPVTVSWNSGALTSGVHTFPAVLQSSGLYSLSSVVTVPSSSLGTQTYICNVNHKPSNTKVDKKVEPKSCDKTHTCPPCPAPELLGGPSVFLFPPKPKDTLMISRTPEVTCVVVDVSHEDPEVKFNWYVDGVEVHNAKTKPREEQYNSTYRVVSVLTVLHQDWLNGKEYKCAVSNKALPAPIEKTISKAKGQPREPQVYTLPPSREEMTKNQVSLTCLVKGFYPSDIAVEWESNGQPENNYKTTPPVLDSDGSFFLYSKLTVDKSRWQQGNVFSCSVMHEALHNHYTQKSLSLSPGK
# notes: human IgG1 with K322A (EU numbering); also called SIRPAB-11-IgG1-K322A; SIRPAB-11-K322A-AlexaFluor647
# Legend:
# mouse SIRPα on cells = biological target: T1, mouse SIRPα on cells (mouse, UniProt P97797 32-513); assay: flow cytometry on Mouse SIRPα-CHO-K1 cells
# T1 construct: whole, on cells; also called mouse SIRPα-CHO-K1; Ms SIRPα-CHO-K1
# T1 sequence (looked up): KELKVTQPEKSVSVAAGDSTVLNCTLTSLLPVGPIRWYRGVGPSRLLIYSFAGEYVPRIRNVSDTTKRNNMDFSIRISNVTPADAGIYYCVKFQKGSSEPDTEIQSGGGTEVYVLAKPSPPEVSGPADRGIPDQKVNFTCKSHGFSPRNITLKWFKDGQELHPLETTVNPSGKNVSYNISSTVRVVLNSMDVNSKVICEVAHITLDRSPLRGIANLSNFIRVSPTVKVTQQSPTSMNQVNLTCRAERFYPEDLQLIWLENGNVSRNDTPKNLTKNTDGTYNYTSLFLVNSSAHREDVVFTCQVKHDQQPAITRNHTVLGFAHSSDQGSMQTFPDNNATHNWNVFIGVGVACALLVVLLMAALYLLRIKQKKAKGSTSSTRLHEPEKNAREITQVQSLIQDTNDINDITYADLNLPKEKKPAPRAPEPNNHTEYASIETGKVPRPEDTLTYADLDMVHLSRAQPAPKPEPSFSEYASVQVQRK
# [1] = biological target: T2, cynomolgus SIRPα on cells (cynomolgus, UniProt P78324 31-373 (human entry)); assay: flow cytometry, cyno SIRPα-CHO cells, anti-human IgG-AF647 detection
# T2 construct: also called cyno SIRPα-CHO; Cyno SIRPα-CHO-K1; not shown: Transmembrane and cytoplasmic region of cynomolgus SIRPα
# T2 chain: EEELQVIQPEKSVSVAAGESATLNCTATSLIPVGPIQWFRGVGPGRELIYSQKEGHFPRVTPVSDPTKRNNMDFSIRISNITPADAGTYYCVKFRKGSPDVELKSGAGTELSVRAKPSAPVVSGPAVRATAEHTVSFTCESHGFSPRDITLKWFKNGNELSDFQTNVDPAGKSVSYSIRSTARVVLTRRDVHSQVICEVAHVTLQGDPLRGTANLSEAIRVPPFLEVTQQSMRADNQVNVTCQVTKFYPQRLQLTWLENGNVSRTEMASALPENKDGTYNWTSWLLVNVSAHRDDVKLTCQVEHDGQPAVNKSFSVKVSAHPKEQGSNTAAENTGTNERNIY
# human SIRPα on cells [2] = biological target: T3, human SIRPα on cells (human, UniProt P78324 31-504); assay: cell-based or functional assay
# FcγR2B = biological target: T4, FcγR2B (human, UniProt P31994 43-310); assay: cell binding, FcγR-engineered HEK293 cells
# T4 construct: whole, on cells
# T4 sequence (looked up): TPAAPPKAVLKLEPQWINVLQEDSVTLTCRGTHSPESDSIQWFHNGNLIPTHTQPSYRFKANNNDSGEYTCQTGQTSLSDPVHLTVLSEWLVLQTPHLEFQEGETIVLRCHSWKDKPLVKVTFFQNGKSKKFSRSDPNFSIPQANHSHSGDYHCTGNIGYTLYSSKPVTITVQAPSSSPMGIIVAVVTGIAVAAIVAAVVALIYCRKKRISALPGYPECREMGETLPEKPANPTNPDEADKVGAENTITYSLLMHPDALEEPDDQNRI
# FcγR1 (CD64) = biological target: T5, FcγR1 (CD64) (human, UniProt P12314 16-374); assay: cell binding, FcγR-engineered HEK293 cells
# T5 construct: whole, on cells
# FcγR3A (CD16aV158) = biological target: T6, FcγR3A (CD16aV158) (human, UniProt P08637 17-254); assay: cell binding, FcγR-engineered HEK293 cells
# T6 construct: whole, on cells
# human SIRPα on cells [3] = biological target: T3, human SIRPα on cells; assay: cell-based or functional assay; remark: listed apart in the source
# human SIRPα on cells [4] = biological target: T3, human SIRPα on cells; assay: flow cytometry, human SIRPα-CHO cells, anti-human IgG-AF647 detection
# T6 sequence (P08637 17-254 F176V): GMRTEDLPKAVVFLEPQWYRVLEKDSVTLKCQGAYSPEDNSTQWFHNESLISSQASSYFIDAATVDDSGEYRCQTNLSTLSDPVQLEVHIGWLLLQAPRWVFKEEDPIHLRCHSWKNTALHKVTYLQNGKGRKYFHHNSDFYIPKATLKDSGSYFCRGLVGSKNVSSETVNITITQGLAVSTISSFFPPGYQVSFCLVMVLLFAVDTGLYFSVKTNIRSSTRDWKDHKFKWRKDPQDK
# T5 sequence (P12314 16-374): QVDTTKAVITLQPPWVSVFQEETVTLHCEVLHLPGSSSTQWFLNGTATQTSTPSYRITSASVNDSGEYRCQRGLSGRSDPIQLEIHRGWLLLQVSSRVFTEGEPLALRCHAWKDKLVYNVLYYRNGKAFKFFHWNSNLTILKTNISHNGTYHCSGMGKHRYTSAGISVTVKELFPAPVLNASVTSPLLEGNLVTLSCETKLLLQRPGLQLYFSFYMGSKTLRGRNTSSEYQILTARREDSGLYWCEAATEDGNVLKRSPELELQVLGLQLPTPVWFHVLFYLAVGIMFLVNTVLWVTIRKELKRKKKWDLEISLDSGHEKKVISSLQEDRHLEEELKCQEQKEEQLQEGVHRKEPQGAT
binder,measurement,setting,value
B1,binding result,mouse SIRPα on cells,no binding (tested: 100 nM (Log nM 2))
same,EC50,[1],1.9 nM
same,EC50 of percent phagocytic macrophages; FaDu; donor 358; 0.2 nM cetuximab,human SIRPα on cells [2],0.075 nM
same,EC50 of percent phagocytic macrophages; FaDu; donor 358; 1 nM cetuximab,human SIRPα on cells [2],0.049 nM
same,EC50 of percent phagocytic macrophages; GP2d; donor 338; 0.2 nM cetuximab,human SIRPα on cells [2],0.657 nM
same,EC50 of percent phagocytic macrophages; GP2d; donor 338; 1 nM cetuximab,human SIRPα on cells [2],0.495 nM
same,EC50 of percent phagocytic macrophages; GP2d; donor 358; 0.2 nM cetuximab,human SIRPα on cells [2],16.2 nM
same,EC50 of percent phagocytic macrophages; GP2d; donor 358; 1 nM cetuximab,human SIRPα on cells [2],0.247 nM
same,EC50 of percent phagocytic macrophages; GP2d; mean; 0.2 nM cetuximab,human SIRPα on cells [2],8.43 nM
same,EC50 of percent phagocytic macrophages; GP2d; mean; 1 nM cetuximab,human SIRPα on cells [2],0.371 nM
same,EC50 of percent phagocytic macrophages; GP5d; donor 338; 0.2 nM cetuximab,human SIRPα on cells [2],0.543 nM
same,EC50 of percent phagocytic macrophages; GP5d; donor 338; 1 nM cetuximab,human SIRPα on cells [2],0.714 nM
same,EC50 of percent phagocytic macrophages; GP5d; donor 358; 0.2 nM cetuximab,human SIRPα on cells [2],0.886 nM
same,EC50 of percent phagocytic macrophages; GP5d; donor 358; 1 nM cetuximab,human SIRPα on cells [2],0.162 nM
same,EC50 of percent phagocytic macrophages; GP5d; mean; 0.2 nM cetuximab,human SIRPα on cells [2],0.715 nM
same,EC50 of percent phagocytic macrophages; GP5d; mean; 1 nM cetuximab,human SIRPα on cells [2],0.438 nM
same,EC50 of percent phagocytic macrophages; SW480; donor 338; 0.2 nM cetuximab,human SIRPα on cells [2],0.2 nM
same,EC50 of percent phagocytic macrophages; SW480; donor 338; 1 nM cetuximab,human SIRPα on cells [2],0.461 nM
same,EC50 of percent phagocytic macrophages; SW480; donor 358; 0.2 nM cetuximab,human SIRPα on cells [2],2.06 nM
same,EC50 of percent phagocytic macrophages; SW480; donor 358; 1 nM cetuximab,human SIRPα on cells [2],0.102 nM
same,EC50 of percent phagocytic macrophages; SW480; mean; 0.2 nM cetuximab,human SIRPα on cells [2],1.13 nM
same,EC50 of percent phagocytic macrophages; SW480; mean; 1 nM cetuximab,human SIRPα on cells [2],0.282 nM
same,EC50,FcγR2B,2710 nM
same,EC50,FcγR1 (CD64),0.79 nM
same,EC50,FcγR3A (CD16aV158),142 nM
same,mean EC50 (n=2 donors) of percent phagocytic macrophages; OCI-LY3; with 0.1 nM rituximab,human SIRPα on cells [3],0.11 nM
same,EC50,human SIRPα on cells [4],2.06 nM
